# In patent publication US20260266838:
# Target: T1, Recombinant CC16 (uteroglobin SCGB1A1), P11684
# T1 chain: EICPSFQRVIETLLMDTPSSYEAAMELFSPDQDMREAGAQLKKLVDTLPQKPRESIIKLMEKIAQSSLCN
protein,measurement,value
native human neutrophil elastase (protein) IVGGRRARPHAWPFMVSLQLRGGHFCGATLIAPNFVMSAAHCVANVNVRAVRVVLGAHNLSRREPTRQVFAVQRIFENGYDPVNLLNDIVILQLNGSATINANVQVAQLPAQGRRLGNGVQCLAMGWGLLGRNRGIASVLQELNVTVVTSLCRRSNVCTLVRGRQAGVCFGDSGSPLVCNGLIHGIASFVRGGCASGLYPDAFAPVAQFVNWIDSIIQ,in vitro cleavage (mass spectrometry of fragments),two peptides with unique amino acid sequences released from HNE-mediated cleavage of CC16 in vitro
